Residue numbers refer to the chain shown, from its start. Names and notes keep the numbering of the source.
Legend:
[1] = target: PP2A core enzyme involving full-length Cα and AΔN, methylated by LCMT1
[2] = target: PP2A core enzyme (AC heterodimer) involving the full-length A subunit
[3] = target: PP2A core enzyme variant involving truncation of the carboxy-terminus of the catalytic subunit (two C-terminal amino acids removed by chymotrypsin)
PP2A core enzyme variant involving truncation of the carboxy-terminus of the catalytic subunit (two C-terminal amino acids removed by chymotrypsin), sequence (chain, as listed by the source mutant, chain 1 of 2): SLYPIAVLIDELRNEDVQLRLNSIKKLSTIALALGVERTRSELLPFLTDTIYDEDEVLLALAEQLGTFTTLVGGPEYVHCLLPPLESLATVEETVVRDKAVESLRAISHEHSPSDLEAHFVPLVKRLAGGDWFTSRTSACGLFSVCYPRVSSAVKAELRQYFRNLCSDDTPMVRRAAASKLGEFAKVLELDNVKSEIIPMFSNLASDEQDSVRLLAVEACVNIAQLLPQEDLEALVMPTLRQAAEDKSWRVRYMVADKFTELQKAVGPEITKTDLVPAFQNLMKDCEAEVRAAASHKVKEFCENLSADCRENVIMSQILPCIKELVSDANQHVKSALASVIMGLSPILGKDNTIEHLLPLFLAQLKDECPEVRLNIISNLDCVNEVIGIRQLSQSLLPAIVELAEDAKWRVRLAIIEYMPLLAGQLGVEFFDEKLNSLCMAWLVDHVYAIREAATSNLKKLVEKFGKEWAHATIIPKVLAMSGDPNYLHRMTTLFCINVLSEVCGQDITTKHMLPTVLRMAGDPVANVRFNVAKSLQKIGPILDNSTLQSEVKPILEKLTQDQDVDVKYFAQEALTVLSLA
PP2A core enzyme variant involving truncation of the carboxy-terminus of the catalytic subunit (two C-terminal amino acids removed by chymotrypsin), sequence (chain, as listed by the source mutant, chain 2 of 2): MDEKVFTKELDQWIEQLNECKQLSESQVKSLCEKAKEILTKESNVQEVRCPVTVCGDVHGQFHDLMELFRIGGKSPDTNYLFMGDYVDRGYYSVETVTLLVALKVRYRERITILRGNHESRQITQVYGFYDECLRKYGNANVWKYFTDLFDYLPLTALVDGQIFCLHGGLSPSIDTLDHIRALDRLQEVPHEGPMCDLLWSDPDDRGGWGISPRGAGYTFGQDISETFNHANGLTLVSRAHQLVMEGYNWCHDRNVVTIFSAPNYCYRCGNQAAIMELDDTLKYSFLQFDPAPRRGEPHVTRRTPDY

PP2A core enzyme (AC heterodimer) involving the full-length A subunit, sequence (chain, as listed by the source, chain 1 of 2): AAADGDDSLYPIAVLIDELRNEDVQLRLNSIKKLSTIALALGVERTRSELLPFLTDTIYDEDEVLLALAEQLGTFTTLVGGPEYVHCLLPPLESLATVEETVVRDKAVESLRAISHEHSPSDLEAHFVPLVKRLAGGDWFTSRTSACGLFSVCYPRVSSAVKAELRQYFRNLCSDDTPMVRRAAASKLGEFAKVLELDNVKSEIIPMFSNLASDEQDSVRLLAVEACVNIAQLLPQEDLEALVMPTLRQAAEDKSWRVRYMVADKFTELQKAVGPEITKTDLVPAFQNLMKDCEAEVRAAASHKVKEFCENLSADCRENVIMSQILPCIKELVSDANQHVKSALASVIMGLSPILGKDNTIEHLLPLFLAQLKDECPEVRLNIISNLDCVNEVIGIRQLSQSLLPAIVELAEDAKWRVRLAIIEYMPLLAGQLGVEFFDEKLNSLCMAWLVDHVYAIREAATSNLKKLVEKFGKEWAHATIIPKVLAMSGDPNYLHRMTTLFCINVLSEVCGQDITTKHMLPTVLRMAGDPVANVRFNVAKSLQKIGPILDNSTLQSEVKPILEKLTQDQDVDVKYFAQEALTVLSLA
PP2A core enzyme (AC heterodimer) involving the full-length A subunit, sequence (chain, as listed by the source, chain 2 of 2): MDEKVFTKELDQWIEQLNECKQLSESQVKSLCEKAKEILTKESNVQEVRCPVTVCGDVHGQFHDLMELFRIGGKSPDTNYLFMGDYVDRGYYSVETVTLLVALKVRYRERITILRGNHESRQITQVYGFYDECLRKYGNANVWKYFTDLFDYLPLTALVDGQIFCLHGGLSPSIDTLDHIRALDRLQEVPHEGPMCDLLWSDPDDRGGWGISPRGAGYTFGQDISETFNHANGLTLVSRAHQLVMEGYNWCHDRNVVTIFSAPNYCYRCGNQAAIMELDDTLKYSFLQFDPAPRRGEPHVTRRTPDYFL
PP2A core enzyme involving full-length Cα and AΔN, methylated by LCMT1, sequence (chain, as listed by the source mutant, chain 1 of 2): as the sequence (chain, as listed by the source mutant, chain 1 of 2) above
PP2A core enzyme involving full-length Cα and AΔN, methylated by LCMT1, sequence (chain, as listed by the source mutant, chain 2 of 2): as the sequence (chain, as listed by the source, chain 2 of 2) above

B1: Full-length PME-1 (1-386) (protein)
chain: MSALEKSMHLGRLPSRPPLPGSGGSQSGAKMRMGPGRKRDFSPVPWSQYFESMEDVEVENETGKDTFRVYKSGSEGPVLLLLHGGGHSALSWAVFTAAIISRVQCRIVALDLRSHGETKVKNPEDLSAETMAKDVGNVVEAMYGDLPPPIMLIGHSMGGAIAVHTASSNLVPSLLGLCMIDVVEGTAMDALNSMQNFLRGRPKTFKSLENAIEWSVKSGQIRNLESARVSMVGQVKQCEGITSPEGSKSIVEGIIEEEEEDEEGSESISKRKKEDDMETKKDHPYTWRIELAKTEKYWDGWFRGLSNLFLSCPIPKLLLLAGVDRLDKDLTIGQMQGKFQMQVLPQCGHAVHEDAPDKVAEAVATFLIRHRFAEPIGGFQCVFPGC
methylesterase activity of PME-1 [1]: The methylesterase activity of PME-1 on the PP2A core enzyme involving the AΔN variant was nearly identical to that on the PP2A core enzyme involving the full-length A subunit | LCMT1-catalyzed methylation [2]: the stable complex between PP2A and PME-1 blocks LCMT1-catalyzed methylation (data not shown) | phosphatase activity after incubation at 37° C. [2]: A prolonged incubation time was required for substantial loss of the phosphatase activity in vitro | phosphatase activity towards phosphorylase a upon initial incubation [2]: The PP2A core enzyme, upon initial incubation with various concentrations of PME-1, exhibited full phosphatase activity towards the substrate phosphorylase a | methylesterase activity of PME-1 after pre-incubation with the PP2A variant and PMSF [3]: pre-incubation with the PP2A variant and PMSF led to marked reduction of PME-1-mediated methylesterase activity

B2: PME-1 R369D (protein)
chain: B1 chain with R369D
methylesterase activity [2]: R369D in PME-1 resulted in marked reduction of its methylesterase activity

B3: PME-1 M335D (protein)
chain: B1 chain with M335D
Mn2+ bound (ICP-MS) and phosphatase activity with or without manganese chloride [2]: mutation of Met335 to aspartate in PME-1 led to decreased ability to remove the metal ions, and the PP2A-PME-1-M335D complex became readily activated by manganese

Source: US20090274682
